Assay results reported in US8163734B2, “Use of a mast cell activation or degranulation blocking agent in the manufacture of a medicament for the treatment of a patient subjected to thrombolyses” (priority 2004, dated 2012).
“Also recorded” adds a separate entry of the source.

Columns and labels:
[1] = system: rat peritoneal mast cells; assay: Degranulation of rat peritoneal mast cells ex vivo; assay type: cell-based
[2] = system: spontaneous intraventricular bleedings; settings: in vivo; cited from earlier work
[3] = system: middle cerebral artery occlusion (MCAO) in rats; assay: 90 min middle cerebral artery occlusion with r-TPA 10 mg/kg infusion; brains dissected 4.5 h after reperfusion (Example 2); assay type: in vivo, rat
Experimental: Rats were given 10 mg/kg of r-TPA, which is considered equivalent to the typical dose given to humans in thrombolysis in stroke and myocardial infarction. Two timings of r-TPA were used to investigate in rat brain the hemorrhagic conversion of infarction, the single most serious complication and hazard in clinical thrombolytic therapy. The group termed r-TPA+saline received 1-hour infusiuon of r-TPA starting 5 minutes (10% as bolus) prior to reperfusion after 90 min of middle cerebral artery occlusion (MCAO), whereas the group saline+r-TPA received r-TPA starting 1 hour after the reperfusion after 90 min of MCAO. […] Brains were dissected at 4.5 hours after reperfusion. Areas of hemorrhage were measured by microscopical image analysis on six histological sections cut through the hemispheres and added together (cf. FIG. 3)
The polymorphonuclear leukocytes (neutrophils, shown in bars, left Y-axis, of FIG. 4) were calculated on the section encompassing the basal ganglia, infarct core and penumbra.
They were also treated with 10 mg/kg of r-TPA in a 1-hour infusion starting […] (10% as bolus) before reperfusion, a dose equivalent to that used clinically in thrombolysis of human stroke and myocardial infarction. Brains were dissected at 4.5 hours after reperfusion. The amount of brain edema was measured by quantitating the areas of hemispheres on histological sections with microscopical image analysis.
In the lower panel, the total area of hemorrhagic conversion was quantitated in six sections cut through the hemispheres.

Q: Which results are given for “r-TPA: alteplase (recombinant tissue plasminogen activator), a serine protease leading to plasmin formation”?
A: degranulation of rat peritoneal mast cells [1]: degranulated; rates of secondary brain hemorrhages [2]: more than doubles; neutrophil density ([3]; both r-TPA groups compared to sham-operated rats): significantly increased; hemorrhage formation in rat brain ([3]; r-TPA 10 mg/kg, started 5 min before or 1 hour after reperfusion, vs sham operated or saline-treated controls): substantial hemorrhage formation; also recorded: significant hemorrhage formation; increase in total number of neutrophils in the tissue, ischemic hemisphere ([3]; r-TPA infusion): up to 3 fold; increase in total number of neutrophils in the tissue, non-infarcted hemisphere ([3]; r-TPA infusion): up to 5 fold; degranulation of cells consistent with mast cell morphology, non-ischemic hemisphere ([3]; r-TPA infusion 5 minutes before reperfusion, 90 minute ischemia): up to 60%; degranulation of cells consistent with mast cell morphology, ischemic hemisphere ([3]; r-TPA infusion 5 minutes before reperfusion, 90 minute ischemia, up to 50% without r-TPA): up to 70%
